Target: the molecule itself
Assay: negative-stain TEM; MBP-CPSF6 P1 or P2 alone, incubated in CA assembly buffer

B1: MBP-His6-CPSF6-588 (natural protein, UniProt Q16630-2 1-588, looked up)
chain: MADGVDHIDIYADVGEEFNQEAEYGGHDQIDLYDDVISPSANNGDAPEDRDYMDTLPPTVGDDVGKGAAPNVVYTYTGKRIALYIGNLTWWTTDEDLTEAVHSLGVNDILEIKFFENRANGQSKGFALVGVGSEASSKKLMDLLPKRELHGQNPVVTPCNKQFLSQFEMQSRKTTQSGQMSGEGKAGPPGGSSRAAFPQGGRGRGRFPGAVPGGDRFPGPAGPGGPPPPFPGNLIKHLVKGTRPLFLETRIPWHMGHSIEEIPIFGLKAGQTPPRPPLGPPGPPGPPGPPPPGQVLPPPLAGPPNRGDRPPPPVLFPGQPFGQPPLGPLPPGPPPPVPGYGPPPGPPPPQQGPPPPPGPFPPRPPGPLGPPLTLAPPPHLPGPPPGAPPPAPHVNPAFFPPPTNSGMPTSDSRGPPPTDPYGRPPPYDRGDYGPPGREMDTARTPLSEAEFEEIMNRNRAISSSAISRAVSDASAGDYGSAIETLVTAISLIKQSKVSADDRCKVLISSLQDCLHGIESKSYGSGSRRERSRERDHSRSREKSRRHKSRSRDRHDDYYRERSRERERHRDRDRDRDRERDREREYRHR
notes: cleavage and polyadenylation specificity factor 6 (CPSF6), the isoform of 588 residues, full length; Order: MBP, His6, CPSF6; An HRV-3C site allows removal of MBP, but the cleaved protein precipitated, so the tagged protein was used; Size exclusion gave two peaks of the same construct, P1 and P2, which are kept here as one molecule; also called MBP-CPSF6; full-length CPSF6; source: Expi 293F …
- binding result: binds
